Experimental findings from US20230047413A1 (Janssen / Centocor, published 2023) are described below.

Several values for one entry are separate records, joined by “and”; a condition that tells them apart may be missing. Identical values can stand only once. Bounds are passed on as bounds.

Experiment [1] has as its target T1, Peptide-2 (human, phosphothreonine 212, phosphothreonine 217 (tau 2N4R numbering); short chain biotin (SCBiot) and dPEG4 at the N-terminus; amide at the C-terminus).
T1 construct: also called pT212/pT217-tau peptide (Peptide-2)
Briefly: SPR ProteOn, mAb captured, peptide as analyte. As for the experimental part:
(§1) A subset of HFA-PT3 monoclonal antibody variants, selected based on biophysical characterization and ELISA binding to PHF, were analyzed by Surface Plasmon Resonance (SPR) with a ProteOn XPR36 for binding to the following phosphopeptides: pT212/pT217-tau peptide (Peptide-2, SEQ ID NO: 48) and pT212-tau peptide (Peptide-8, SEQ ID NO: 54). All experiments were performed at 25° C. using PBST, pH 7.4, (Bio-Rad Cat#176-2720) as both running buffer and sample dilution buffer.
(§2) Monoclonal antibody/Peptide binding. […] Anti-human IgG was amine-coupled to the chip surface using EDC/NHS, then washed with ethanolamine. Antibodies were diluted to 2 μg/mL in PBST and injected on the surface for 5 min at 30 μL/min to achieve a maximum density of 900-1000 RU. Peptides were injected as analytes at 60 μL/min for 3 min, followed by 5 min dissociation. Peptide-2 was diluted in PBST to generate a three-fold concentration series (0-30 nM) and measured in duplicate. Single measurements of monoclonal antibody binding to Peptide-8 were recorded over the concentration range 0-100 nM.
(§3) Data were double referenced by subtraction of the interspot response, and the curves generated by the buffer only injection. The chip surface was regenerated with 0.85% phosphoric acid, followed by PBST injection before the next antibody titration injection. Data processing and analysis were performed using instrument software. The data were fit using a simple Langmuir 1:1 binding model.

The target in experiment [2] is T1, Peptide-2. Description: SPR ProteOn, mAb captured, peptide as analyte; range of n=2. As to the method: as §1, §2, §3
Experiment [3] deals with T2, Peptide-8 (human, phosphothreonine 212 (tau 2N4R numbering); SCBiot and dPEG4 at the N-terminus; amide at the C-terminus).
T2 construct: also called pT212-tau peptide (Peptide-8)
T2 sequence (peptide, as listed by the source): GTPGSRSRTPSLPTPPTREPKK
Briefly: SPR ProteOn, mAb captured by anti-human Fc, peptide as analyte. As to the method: as §1, §2, §3

The target of experiment [4] is T3, PHF-tau (paired helical filament tau isolated from Alzheimer's disease brain) (human, UniProt P10636-8 2-441, limits assumed, hyper-phosphorylated, aggregated; sites not listed for the preparation).
T3 construct: also called enriched PHF-tau; ePHF-tau
T3 sequence (P10636 other isoform, or with tags, fused parts or gaps limits assumed): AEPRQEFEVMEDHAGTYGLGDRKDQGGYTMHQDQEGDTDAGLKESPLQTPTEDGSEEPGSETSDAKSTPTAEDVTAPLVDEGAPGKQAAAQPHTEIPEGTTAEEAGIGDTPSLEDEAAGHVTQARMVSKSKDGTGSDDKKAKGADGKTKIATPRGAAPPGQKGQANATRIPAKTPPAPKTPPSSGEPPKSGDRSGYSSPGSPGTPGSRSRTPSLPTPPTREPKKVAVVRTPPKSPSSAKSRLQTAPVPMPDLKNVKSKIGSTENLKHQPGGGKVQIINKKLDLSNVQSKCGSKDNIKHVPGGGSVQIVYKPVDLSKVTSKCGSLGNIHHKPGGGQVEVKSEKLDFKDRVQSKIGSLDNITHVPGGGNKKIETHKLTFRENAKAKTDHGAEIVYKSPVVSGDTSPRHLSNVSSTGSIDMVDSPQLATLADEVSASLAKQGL
Description: SPR ProteOn, PHF-tau capture-coupled via HT7, bivalent model. As for the experimental part:
A subset of HFA-PT3 monoclonal antibodies was tested for binding to PHF-tau isolated from Alzheimer's disease brain. All interactions were studied at 25° C. using PBS pH 7.4, supplemented with 3 mM EDTA, and 0.005% Tween 20 as running or system buffer. HT7 (Pierce, catalog #MN1000), a mouse anti-tau antibody, was used as a positive control.
The interaction of anti-tau monoclonal antibodies with PHF-tau was analyzed by ProteOn using a biosensor surface prepared by capture-coupling PHF-tau using HT7 as the capture reagent. PHF-tau was prepared by 2-times centrifugation at 5000×g at 5° C. for 10 min; the supernatant from the second centrifugation was then diluted 1/40 in running buffer. To prepare the chip, HT7 was covalently immobilized to the surface of a GLC (ProteOn) sensor chip using the manufacturer's instructions for amine-coupling chemistry (˜5000 response units (RU)). The coupling buffer was 10 mM sodium acetate, pH 4.5. After HT7 immobilization, PHF-tau was injected and captured (˜300 RU) by HT7. After capture, PHF-tau was covalently immobilized to the sensor chip by activation of the chip using the manufacturer's instructions for amine-coupling chemistry. Remaining reactive sites were blocked by the injection of ethanolamine. After preparation and stabilization of the PHF-tau-modified surface and reference surface (containing no antigen), the anti-tau antibodies were diluted in the running buffer and injected in solution (0.12-75 nM in 5-fold dilutions). The association was monitored for 3 minutes (120 μL injected at 40 μL/min). The dissociation was monitored for 15 minutes. Regeneration of the sensor surface was performed using 10 mM Gly pH 2.0. The data for monoclonal antibodies were fit using a bivalent binding model where the apparent affinity (KD) was reported as the ratio of koff/kₒₙ. A Langmuir 1:1 binding model was used for kinetics analysis of Fabs.

The target of experiment [5] is T1, Peptide-2. Briefly: SPR ProteOn, mAb captured, peptide as analyte; range of n=2; upper end of n=2 range. As for the experimental part:
as §1, §2, §3

Experiment [6] addresses T3, PHF-tau (paired helical filament tau …). Description: SPR ProteOn, PHF-tau on chip.
Experiment [7] shares this target. Briefly: SPR ProteOn, PHF-tau capture-coupled via HT7, 1:1 model. As to the method:
Affinity matured monoclonal antibodies were tested for binding to PHF-tau isolated from Alzheimer's disease brain.
A GLC sensor chip was covalently immobilized with a mouse anti-tau antibody, HT7 (ThermoFisher, catalog# MN1000) using the vendor recommended protocol for amine-coupling chemistry (˜5000 response units, RU). The coupling buffer was 10 mM, pH 4.5 sodium acetate. PHF-tau was prepared by 2-times centrifugation at 5000×g in 5° C. for 10 min. […] After capture-coupling, the surface was activated and deactivated to generate a homogenous PHF-tau surface for antibody binding studies. The anti-tau antibodies and their Fabs (prepared in running buffer, 0.024-75 nM at 5-fold dilutions) were injected at 50 μL/min over the PHF-tau surface to measure binding. The association and dissociation profiles were monitored for 4 minutes and 2 hours, respectively. After dissociation, the sensor chip was regenerated using multiple injections of 10 mM Glycine pH 2.0 and the running buffer. A reference surface (without any PHF-tau) was used to monitor non-specific binding of the injected mAbs or Fabs. HT7 antibody was used as a positive control. The binding sensorgrams for mAbs were fit using a bivalent binding model where the apparent affinity or avidity-driven binding (KD) was reported as the ratio of off-rate and on-rate (koff/kₒₙ). A 1:1 Langmuir binding model was used for kinetics analysis of Fabs.

B1: B234 (antibody, human IgG1, V domains shown)
VH: EVKLVESGGDLVKPGGSLKLSCAASGFTFSSYAMSWVRQNPEKRLEWVASISKGGNTYYPNSVKGRFTISRDNARNILYLQMSSLRSEDTALYYCARGWGDYGWFAYWGQVTLVTVSA
VL: DIKMTQSPSSMYASLGERVTITCKASQDINRYLNWFQQKPGKSPKTLIYRANRLLDGVPSRFSGSGSGQDYSLTISSLDYEDMGIYYCLQYDEFPLTFGDGTKLELK
notes: Mouse PT3 variable regions (VH10/VL7) with human IgG1/kappa constant region; also called mouse PT3, hIgG1
In general, koff refers to the rate constant with which the complex falls apart. Broadly, the kon is the second-order rate constant of association. The low end stands for slower complex formation, the high end for faster complex formation. On to B1, for which, in experiment [1], the Kd amounted to 29.2 pM, the off-rate constant (koff) is 0.000325 s⁻¹ and the kon came to 9.35e+06 M⁻¹ s⁻¹. Further, in experiment [2], the Kd fell in the range of 27.8 to 30.6 pM; the koff is 0.000242 s⁻¹ and 0.000408 s⁻¹; the kon is 8.7e+06 M⁻¹ s⁻¹ and 1e+07 M⁻¹ s⁻¹. Also, in experiment [3], the Kd came out at 3480 pM, the koff came out at 0.00802 s⁻¹ and the kon worked out at 2.31e+06 M⁻¹ s⁻¹.

B2: B297 (antibody, human IgG1, V domains shown)
VH: QVQLVESGGGLVKPGGSLRLSCAASGFTFSSYAMSWIRQAPGKGLEWVSSISKGGNTYYADSVKGRFTISRDNAKNSLYLQMNSLRAEDTAVYYCARGWGDYGWFAYWGQVTLVTVSS
VL: DIQMTQSPSSLSASVGDRVTITCKASQDINRYLNWFQQKPGKAPKSLIYRANRLLSGVPSRFSGSGSGTDFTLTISSLQPEDFATYYCLQYDEFPLTFGQGTKLEIK
notes: Humanized (HFA) PT3 variant, human IgG1/kappa; it is built from VL77 with D56S; also called VH93/VL78
In experiment [4], B2 registered a Kd of 42 pM, a koff of 6.03e-05 s⁻¹ and a kon of 1.44e+06 M⁻¹ s⁻¹.

B3: B252 (antibody, human IgG1, V domains shown)
VH: QVQLVESGGGLVKPGGSLRLSCAASGFTFSSYAMSWIRQAPGKGLEWVSSISKGGNTYYADSVKGRFTISRDNAKNSLYLQMNSLRAEDTAVYYCARGWGDYGWFAYWGQVTLVTVSS
VL: DIVMTQTPLSSPVTLGQPASISCKASQDINRYLNWLQQRPGQPPRLLIYRANRLLDGVPDRFSGSGAGTDFTLKISRVEAEDVGVYYCLQYDEFPLTFGQGTKLEIK
notes: Humanized (HFA) PT3 variant, human IgG1/kappa; also called VH93/VL80
In the case of B3, the Kd in experiment [1] was 172 pM; in experiment [2], 126 to 217 pM; in experiment [4] it was 32 pM; in experiment [3], 32600 pM. The koff in experiment [1] is 0.000901 s⁻¹; in experiment [2], 0.000856 s⁻¹; in experiment [4], 4.28e-05 s⁻¹; in experiment [3], 0.0242 s⁻¹; in experiment [5], 0.000946 s⁻¹. In addition, the kon was determined as 5.75e+06 M⁻¹ s⁻¹ in experiment [1]; 3.95e+06 M⁻¹ s⁻¹ in experiment [2]; 1.32e+06 M⁻¹ s⁻¹ in experiment [4]; 742000 M⁻¹ s⁻¹ in experiment [3]; 7.54e+06 M⁻¹ s⁻¹ in experiment [5].

B4: B352 (IgG4 mAb) (antibody, V domains shown)
VH: QVQLVESGGGVVQPGRSLRLSCAASGFTFSSYAMSWVRQAPGKGLEWVASISKGGNTYYADSVKGRFTISRDNSKNTLYLQMNSLRAEDTAVYYCARGWGDYGWFAYWGQVTLVTVSS
VL: DIQMTQSPSSLSASVGDRVTITCKASQDINRYLNWFQQKPGKAPKSLIYRANRLLDGVPSRFSGSGSGTDFTLTISSLQPEDFATYYCLQYDEFPLTFGQGTKLEIK
notes: IgG4 variant of B296 with the same variable regions; also called B296 as hIgG4
For B4, the “fold difference in affinity against B296” value in experiment [6] is at most 2 fold. Moreover, in experiment [4], the Kd was 43 pM, the koff was determined as 1.11e-05 s⁻¹ and the kon is 255000 M⁻¹ s⁻¹.

B5: B331 (Fab of B333) (Fab, V domains shown)
VH: QVQLVESGGGVVQPGRSLRLSCAASGFTFSSYAMSWVRQAPGKGLEWVASISKGGNTYYADSVKGRFTISRDNSKNTLYLQMNSLRAEDTAVYYCARGWGDYGWFAYWGQVTLVTVSS
VL: DIQMTQSPSSLSASVGDRVTITCKASQDINRWLNWFQQKPGKAPKSLIYRANRLLDGVPSRFSGSGSGTDFTLTISSLQPEDFATYYCLQYDEFPLTFGQGTKLEIK
Regarding B5, in experiment [7], the Kd turned out to be 31 pM, the off-rate (koff) is 5.31e-05 s⁻¹ and the kon was determined as 1.72e+06 M⁻¹ s⁻¹.

B6: B282 (antibody, human IgG1, V domains shown)
VH: QVQLVESGGGLVKPGGSLRLSCAASGFTFSSYAMSWIRQAPGKGLEWVSSISKGGNTYYADSVKGRFTISRDNAKNSLYLQMNSLRAEDTAVYYCARGWGDYGWFAYWGQVTLVTVSS
VL: DIQMTQSPSSLSASVGDRVTITCKASQDINRYLNWFQQKPGKAPKSLIYRANRLLDGVPSRFSGSGSGTDFTLTISSLQPEDFATYYCLQYDEFPLTFGQGTKLEIK
notes: Humanized (HFA) PT3 variant, human IgG1/kappa; also called VH93/VL77
Regarding B6, the Kd in experiment [1] is 445 pM; in experiment [2] it was 360 to 529 pM; in experiment [4] it was 61 pM; in experiment [3] it was 86500 pM. Moreover, the koff is 0.00132 s⁻¹ in experiment [1]; 0.00124 s⁻¹ in experiment [2]; 4.08e-05 s⁻¹ in experiment [4]; 0.0382 s⁻¹ in experiment [3]; 0.0014 s⁻¹ in experiment [5]. Besides, the on-rate constant (kon) in experiment [1] came to 3.12e+06 M⁻¹ s⁻¹; in experiment [2] it was 2.34e+06 M⁻¹ s⁻¹; in experiment [4], 665000 M⁻¹ s⁻¹; in experiment [3], 442000 M⁻¹ s⁻¹; in experiment [5], 3.89e+06 M⁻¹ s⁻¹.

B7: B332 (Fab of B809) (Fab, V domains shown)
VH: QVQLVESGGGVVQPGRSLRLSCAASGFTFTSYAMSWVRQAPGKGLEWVASITKGGNTYYADSVKGRFTISRDNSKNTLYLQMNSLRAEDTAVYYCARGWGIYGWFAYWGQVTLVTVSS
VL: DIQMTQSPSSLSASVGDRVTITCKASQDINRYLNWFQQKPGKAPKSLIYRANRLLDGVPSRFSGSGSGTDFTLTISSLQPEDFATYYCLQYDEFPLTFGQGTKLEIK
In experiment [7], B7 had a Kd of 25.8 pM, a koff of 0.00012 s⁻¹ and a kon of 4.64e+06 M⁻¹ s⁻¹.
